# In the supplement of paper PMC5998384:
# What was measured:
# HeLa Kyoto [1] = assay: solubility in G1/S (NP-40 vs SDS abundance) (log2 ratio); higher = more soluble; settings: cell cycle stage: G1/S
# HeLa Kyoto [2] = assay: melting temperature (median over replicates), in situ; higher = more thermally stable
# HeLa Kyoto [3] = assay: solubility change mitosis vs G1/S (difference of NP-40 vs SDS log2 ratios) (log2 ratio difference); higher = more soluble in mitosis
# HeLa Kyoto [4] = assay: thermal stability score vs G1/S (z-score of summed log2 fold changes over temperatures); higher = more thermally stable than in G1/S
# [5] = cell cycle stage: early G1 (4.5 h after nocodazole release)
# 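Wherever melting temperature (median over replicates), in situ is given: HeLa Kyoto cells synchronized by double thymidine or nocodazole block, proteins quantified by TMT10plex mass spectrometry, three independent biological replicates.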
# 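Wherever solubility change mitosis vs G1/S (difference of NP-40 vs SDS log2 ratios) is given: synchronized HeLa Kyoto cells (double thymidine block for G1/S, nocodazole release for mitosis), protein amounts in NP-40 versus SDS lysates quantified by mass spectrometry, three biological replicates.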
# 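Wherever solubility in G1/S (NP-40 vs SDS abundance) is given: HeLa Kyoto cells arrested at G1/S by double thymidine block, proteins quantified by TMT10plex mass spectrometry in mild NP-40 versus SDS extracts, three biological replicates.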
# 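Wherever thermal stability score vs G1/S (z-score of summed log2 fold changes over temperatures) is given: synchronized HeLa Kyoto cells, proteins quantified by TMT10plex mass spectrometry, three biological replicates, mitosis taken 0.5 h after nocodazole release, G1/S directly after double thymidine block.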
Sequence,solubility in G1/S (log2) (HeLa Kyoto [1]),melting temperature (HeLa Kyoto [2]; cell cycle stage: G1/S) [°C],melting temperature (HeLa Kyoto [2]; cell cycle stage: mitosis) [°C],solubility change mitosis (log2) (HeLa Kyoto [3]),thermal stability score (HeLa Kyoto [4]; [5]),thermal stability score (HeLa Kyoto [4]; cell cycle stage: mitosis)
MDTKEEKKERKQSYFARLKKKKQAKQNAETASAVATRTHTGKEDNNTVVLEPDKCNIAVEEEYMTDEKKKRKSNQLKEIRRTELKRYYSIDDNQNKTHDKKEKKMVVQKPHGTMEYTAGNQDTLNSIALKFNITPNKLVELNKLFTHTIVPGQVLFVPDANSPSSTLRLSSSSPGATVSPSSSDAEYDKLPDADLARKALKPIERVLSSTSEEDEPGVVKFLKMNCRYFTDGKGVVGGVMIVTPNNIMFDPHKSDPLVIENGCEEYGLICPMEEVVSIALYNDISHMKIKDALPSDLPQDLCPLYRPGEWEDLASEKDINPFSKFKSINKEKRQQNGEKIMTSDSRPIVPLEKSTGHTPTKPSGSSVSEKLKKLDSSRETSHGSPTVTKLSKEPSDTSSAFESTAKENFLGEDDDFVDLEELSSQTGGGMHKKDTLKECLSLDPEERKKAESQINNSAVEMQVQSALAFLGTENDVELKGALDLETCEKQDIMPEVDKQSGSPESRVENTLNIHEDLDKVKLIEYYLTKNKEGPQVSENLQKTELSDGKSIEPGGIDITLSSSLSQAGDPITEGNKEPDKTWVKKGEPLPVKLNSSTEANVIKEALDSSLESTLDNSCQGAQMDNKSEVQLWLLKRIQVPIEDILPSKEEKSKTPPMFLCIKVGKPMRKSFATHTAAMVQQYGKRRKQPEYWFAVPRERVDHLYTFFVQWSPDVYGKDAKEQGFVVVEKEELNMIDNFFSEPTTKSWEIITVEEAKRRKSTCSYYEDEDEEVLPVLRPHSALLENMHIEQLARRLPARVQGYPWRLAYSTLEHGTSLKTLYRKSASLDSPVLLVIKDMDNQIFGAYATHPFKFSDHYYGTGETFLYTFSPHFKVFKWSGENSYFINGDISSLELGGGGGRFGLWLDADLYHGRSNSCSTFNNDILSKKEDFIVQDLEVWAFD [NCOA7],0.0391,51,50.9,-0.15,-0.286,-0.429
MDTPLRRSRRLGGLRPESPESLTSVSRTRRALVEFESNPEETREPGSPPSVQRAGLGSPERPPKTSPGSPRLQQGAGLESPQGQPEPGAASPQRQQDLHLESPQRQPEYSPESPRCQPKPSEEAPKCSQDQGVLASELAQNKEELTPGAPQHQLPPVPGSPEPYPGQQAPGPEPSQPLLELTPRAPGSPRGQHEPSKPPPAGETVTGGFGAKKRKGSSSQAPASKKLNKEELPVIPKGKPKSGRVWKDRSKKRFSQMLQDKPLRTSWQRKMKERQERKLAKDFARHLEEEKERRRQEKKQRRAENLKRRLENERKAEVVQVIRNPAKLKRAKKKQLRSIEKRDTLALLQKQPPQQPAAKI [CCDC86],-1.03,57.2,54.1,0.956,-0.356,-4.77
MDVERLQEALKDFEKRGKKEVCPVLDQFLCHVAKTGETMIQWSQFKGYFIFKLEKVMDDFRTSAPEPRGPPNPNVEYIPFDEMKERILKIVTGFNGIPFTIQRLCELLTDPRRNYTGTDKFLRGVEKNVMVVSCVYPSSEKNNSNSLNRMNGVMFPGNSPSYTERSNINGPGTPRPLNRPKVSLSAPMTTNGLPESTDSKEANLQQNEEKNHSDSSTSESEVSSVSPLKNKHPDEDAVEAEGHEVKRLRFDKEGEVRETASQTTSSEISSVMVGETEASSSSQDKDKDSRCTRQHCTEEDEEEDEEEEEESFMTSREMIPERKNQEKESDDALTVNEETSEENNQMEESDVSQAEKDLLHSEGSENEGPVSSSSSDCRETEELVGSNSSKTGEILSESSMENDDEATEVTDEPMEQD [PPP4R2],0.000183,51.2,51.7,-0.111,-0.271,-0.968
MDVFLMIRRHKTTIFTDAKESSTVFELKRIVEGILKRPPDEQRLYKDDQLLDDGKTLGECGFTSQTARPQAPATVGLAFRADDTFEALCIEPFSSPPELPDVMKPQDSGSSANEQAVQ [TCEB2],0.109,52,51.8,0.00166,1.2,-0.75
MDVLAEANGTFALNLLKTLGKDNSKNVFFSPMSMSCALAMVYMGAKGNTAAQMAQILSFNKSGGGGDIHQGFQSLLTEVNKTGTQYLLRMANRLFGEKSCDFLSSFRDSCQKFYQAEMEELDFISAVEKSRKHINTWVAEKTEGKIAELLSPGSVDPLTRLVLVNAVYFRGNWDEQFDKENTEERLFKVSKNEEKPVQMMFKQSTFKKTYIGEIFTQILVLPYVGKELNMIIMLPDETTDLRTVEKELTYEKFVEWTRLDMMDEEEVEVSLPRFKLEESYDMESVLRNLGMTDAFELGKADFSGMSQTDLSLSKVVHKSFVEVNEEGTEAAAATAAIMMMRCARFVPRFCADHPFLFFIQHSKTNGILFCGRFSSP [SERPINB6],0.174,55.8,56.1,-0.136,-1.49,-2.35
MDVLVSECSARLLQQEEEIKSLTAEIDRLKNCGCLGASPNLEQLQEENLKLKYRLNILRKSLQAERNKPTKNMINIISRLQEVFGHAIKAAYPDLENPPLLVTPSQQAKFGDYQCNSAMGISQMLKTKEQKVNPREIAENITKHLPDNECIEKVEIAGPGFINVHLRKDFVSEQLTSLLVNGVQLPALGENKKVIVDFSSPNIAKEMHVGHLRSTIIGESISRLFEFAGYDVLRLNHVGDWGTQFGMLIAHLQDKFPDYLTVSPPIGDLQVFYKESKKRFDTEEEFKKRAYQCVVLLQGKNPDITKAWKLICDVSRQELNKIYDALDVSLIERGESFYQDRMNDIVKEFEDRGFVQVDDGRKIVFVPGCSIPLTIVKSDGGYTYDTSDLAAIKQRLFEEKADMIIYVVDNGQSVHFQTIFAAAQMIGWYDPKVTRVFHAGFGVVLGEDKKKFKTRSGETVRLMDLLGEGLKRSMDKLKEKERDKVLTAEELNAAQTSVAYGCIKYADLSHNRLNDYIFSFDKMLDDRGNTAAYLLYAFTRIRSIARLANIDEEMLQKAARETKILLDHEKEWKLGRCILRFPEILQKILDDLFLHTLCDYIYELATAFTEFYDSCYCVEKDRQTGKILKVNMWRMLLCEAVAAVMAKGFDILGIKPVQRM [RARS],-0.181,49,48.9,-0.175,0.328,1.95
MEAARTAVLRVKRKRSAEPAEALVLACKRLRSDAVESAAQKTSEGLERAAENNVFHLVATVCSQEEPVQPLLREVLRPSRDSQQRVRRNLRASAREVRQEGRYRVLSSRRSLGTTSSGQESEYTPGNPEAAGNSGFQLLDLVHEEGEPEAASAGSCKTSDPDVILCNSVELIRERLTVSEDGPGVRRQEEQKHDDYVYDIYYLETATPGWIENILSVQPYSQEWELVNDDQEPEDIYDDEDDENSENNWRNEYPEEESSDGDEDSRGSADYNSLSEEERGSSRQRMWSKYPLDVQKEFGYDSPHDLDSD [SLC7A6OS],0.343,52.4,54,-0.117,-0.0342,0.677
MEAAVAAPRPRLLLLVLAAAAAAAAALLPGATALQCFCHLCTKDNFTCVTDGLCFVSVTETTDKVIHNSMCIAEIDLIPRDRPFVCAPSSKTGSVTTTYCCNQDHCNKIELPTTVKSSPGLGPVELAAVIAGPVCFVCISLMLMVYICHNRTVIHHRVPNEEDPSLDRPFISEGTTLKDLIYDMTTSGSGSGLPLLVQRTIARTIVLQESIGKGRFGEVWRGKWRGEEVAVKIFSSREERSWFREAEIYQTVMLRHENILGFIAADNKDNGTWTQLWLVSDYHEHGSLFDYLNRYTVTVEGMIKLALSTASGLAHLHMEIVGTQGKPAIAHRDLKSKNILVKKNGTCCIADLGLAVRHDSATDTIDIAPNHRVGTKRYMAPEVLDDSINMKHFESFKRADIYAMGLVFWEIARRCSIGGIHEDYQLPYYDLVPSDPSVEEMRKVVCEQKLRPNIPNRWQSCEALRVMAKIMRECWYANGAARLTALRIKKTLSQLSQQEGIKM [TGFBR1],-0.00326,50.2,50.8,-0.101,0.718,0.929
MEAFQELRKPSARLECDHCSFRGTDYENVQIHMGTIHPEFCDEMDAGGLGKMIFYQKSAKLFHCHKCFFTSKMYSNVYYHITSKHASPDKWNDKPKNQLNKETDPVKSPPLPEHQKIPCNSAEPKSIPALSMETQKLGSVLSPESPKPTPLTPLEPQKPGSVVSPELQTPLPSPEPSKPASVSSPEPPKSVPVCESQKLAPVPSPEPQKPAPVSPESVKATLSNPKPQKQSHFPETLGPPSASSPESPVLAASPEPWGPSPAASPESRKSARTTSPEPRKPSPSESPEPWKPFPAVSPEPRRPAPAVSPGSWKPGPPGSPRPWKSNPSASSGPWKPAKPAPSVSPGPWKPIPSVSPGPWKPTPSVSSASWKSSSVSPSSWKSPPASPESWKSGPPELRKTAPTLSPEHWKAVPPVSPELRKPGPPLSPEIRSPAGSPELRKPSGSPDLWKLSPDQRKTSPASLDFPESQKSSRGGSPDLWKSSFFIEPQKPVFPETRKPGPSGPSESPKAASDIWKPVLSIDTEPRKPALFPEPAKTAPPASPEARKRALFPEPRKHALFPELPKSALFSESQKAVELGDELQIDAIDDQKCDILVQEELLASPKKLLEDTLFPSSKKLKKDNQESSDAELSSSEYIKTDLDAMDIKGQESSSDQEQVDVESIDFSKENKMDMTSPEQSRNVLQFTEEKEAFISEEEIAKYMKRGKGKYYCKICCCRAMKKGAVLHHLVNKHNVHSPYKCTICGKAFLLESLLKNHVAAHGQSLLKCPRCNFESNFPRGFKKHLTHCQSRHNEEANKKLMEALEPPLEEQQI [CHAMP1],-0.327,48.8,50.3,0.221,1.41,3.68
MEASRRFPEAEALSPEQAAHYLRYVKEAKEATKNGDLEEAFKLFNLAKDIFPNEKVLSRIQKIQEALEELAEQGDDEFTDVCNSGLLLYRELHNQLFEHQKEGIAFLYSLYRDGRKGGILADDMGLGKTVQIIAFLSGMFDASLVNHVLLIMPTNLINTWVKEFIKWTPGMRVKTFHGPSKDERTRNLNRIQQRNGVIITTYQMLINNWQQLSSFRGQEFVWDYVILDEAHKIKTSSTKSAICARAIPASNRLLLTGTPIQNNLQELWSLFDFACQGSLLGTLKTFKMEYENPITRAREKDATPGEKALGFKISENLMAIIKPYFLRRTKEDVQKKKSSNPEARLNEKNPDVDAICEMPSLSRKNDLIIWIRLVPLQEEIYRKFVSLDHIKELLMETRSPLAELGVLKKLCDHPRLLSARACCLLNLGTFSAQDGNEGEDSPDVDHIDQVTDDTLMEESGKMIFLMDLLKRLRDEGHQTLVFSQSRQILNIIERLLKNRHFKTLRIDGTVTHLLEREKRINLFQQNKDYSVFLLTTQVGGVGLTLTAATRVVIFDPSWNPATDAQAVDRVYRIGQKENVVVYRLITCGTVEEKIYRRQVFKDSLIRQTTGEKKNPFRYFSKQELRELFTIEDLQNSVTQLQLQSLHAAQRKSDIKLDEHIAYLQSLGIAGISDHDLMYTCDLSVKEELDVVEESHYIQQRVQKAQFLVEFESQNKEFLMEQQRTRNEGAWLREPVFPSSTKKKCPKLNKPQPQPSPLLSTHHTQEEDISSKMASVVIDDLPKEGEKQDLSSIKVNVTTLQDGKGTGSADSIATLPKGFGSVEELCTNSSLGMEKSFATKNEAVQKETLQEGPKQEALQEDPLESFNYVLSKSTKADIGPNLDQLKDDEILRHCNPWPIISITNESQNAESNVSIIEIADDLSASHSALQDAQASEAKLEEEPSASSPQYACDFNLFLEDSADNRQNFSSQSLEHVEKENSLCGSAPNSRAGFVHSKTCLSWEFSEKDDEPEEVVVKAKIRSKARRIVSDGEDEDDSFKDTSSINPFNTSLFQFSSVKQFDASTPKNDISPPGRFFSSQIPSSVNKSMNSRRSLASRRSLINMVLDHVEDMEERLDDSSEAKGPEDYPEEGVEESSGEASKYTEEDPSGETLSSENKSSWLMTSKPSALAQETSLGAPEPLSGEQLVGSPQDKAAEATNDYETLVKRGKELKECGKIQEALNCLVKALDIKSADPEVMLLTLSLYKQLNNN [ERCC6L],-0.0349,49.5,49.1,-0.161,1.6,2.53
MEATTAGVGRLEEEALRRKERLKALREKTGRKDKEDGEPKTKHLREEEEEGEKHRELRLRNYVPEDEDLKKRRVPQAKPVAVEEKVKEQLEAAKPEPVIEEVDLANLAPRKPDWDLKRDVAKKLEKLKKRTQRAIAELIRERLKGQEDSLASAVDAATEQKTCDSD [CCDC12],0.73,53.7,53.3,0.156,-1.88,-2.79
